Laboratory results taken from the supplement of paper PMC9170038.

Columns and labels:
MS2 coat protein [1] = test: apparent KD of MS2 coat protein, switch ON state; designed switch direction (-1 OFF switch, 1 ON switch): -1; higher = weaker reporter binding; settings: FMN input: 0 or 200 uM; Eterna round: R93 (includes R88 designs)
Summary of the method: (§1)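 Designed RNA switches, transcribed on-chip from Illumina sequencing clusters, were titrated with SNAP-549-labelled MS2 coat protein from 0.7 or 1.5 nM to 3 µM in twofold steps. The solution was 100 mM Tris-HCl pH 7.5, 80 mM KCl, 4 mM MgCl2, with constant ligand or without it. Apparent KD is the median over each design's normalised cluster binding-curve fits.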

MS2 coat protein [2] = test: apparent KD of MS2 coat protein, switch OFF state (with FMN for OFF switches, without FMN for ON switches); designed switch direction (-1 OFF switch, 1 ON switch): -1; higher = weaker reporter binding; settings: FMN input: 0 or 200 uM; Eterna round: R93 (includes R88 designs)
Summary of the method: as §1

Sequence | apparent KD of MS2 coat protein (MS2 coat protein [1]) | apparent KD of MS2 coat protein (MS2 coat protein [2])
AAGAAGGUAGGAUAUACAUGAGGAUCACCCAUGUAAAAGAAAGAAGGGAAAGAGAAAAGUAGAAGGACCAAGAA [Rudamon] | 33.4 nM | 55.3 nM
AGGGAGUAAGGAUAUGAGAAAGAAAAAGAAGGAAAAAAAGAUCAGAAGGUACAUGAGGAUCACCCAUGUAAAAA [milkweed 9] | 35.6 nM | 26 nM
CACGUACAUGAGGAUCACCCAUGUUAGGAUAUGCCGGGUAAGAGAAAACUAAAAAUCAGCAGAAGGGACGAAAC [Bilbo Confounded 16 - Jieux - Exclusion 1] | 36.7 nM | 32.3 nM
AAAAUACAUGAGGAUCACCCAUGUGAGGAUAUCUUAAAGGGAAUAAAAUAACUCAAAAAGAGAAGGCACAAAAA [Ex 1 May 29] | 35.8 nM | 44 nM
GAUAAACAUGAGGAUCACCCAUGUAAGGAUAUGCGCUAACUAACUAACUAACUAACUAGCAGAAGGUACACUAC [The End] | 24.4 nM | 26.5 nM
AAGAAACAUGAGGAUCACCCAUGUGAGGAUAUGGAAGAAAGAAAGAAAGAAAGAAGAACCAGAAGGCACAAAGG [Publius Rubrius Barbarus] | 144 nM | 105 nM
AGCUAGUCAGGAUAUACGAACAUGUCAAAAGACGUGAAAAAACAUGAGGAUCACCCAUGUAGAAGGGACUAGCA [Mat - Exclusion 2 - JL mod - D11] | 18.8 nM | 14.6 nM
UUUAUGUGAGGAUAUACGAAUAGUAAGUAAGUCUUACAGACGUAGAAGGCACAUGAGGAUCACCCAUGUGAACC [JR_Exc004_Sub309] | 46.4 nM | 277 nM
AAUUAGUGAGGAUAUACGGGAGGGAGGGAGGGAGGGAGGGAGUAGAAGGCACAUGAGGAUCACCCAUGUAAUUA [The West [Loop] is Red] | 20.8 nM | 49.9 nM
AAGAAUGUAGGAUAUACAAGGAAGAAAGAAAAGAAAAGAAAACAUGAGGAUCACCCAUGUAGAAGGACAUAGAA [EteRNA is fun!] | 23.6 nM | 18.2 nM
AAAUUGUCAGGAUAUCCUAUAAUAAUAAAAUAGAGGAGAUAGGAGAAGGGACAUGAGGAUCACCCAUGUAAAAC [May 85] | 37.7 nM | 31.2 nM
AAAAAACAUGAGGAUCACCCAUGUGAGGAUAUCGAAAAGAAAAGAAAAGAAAGAAGAACGAGAAGGCACAAGAA [Sneferu] | 36.6 nM | 48 nM
GAAAAAGGAGGAUAUACGUACAUGUCAAAAGACGUGAAGGGACAUGAGGAUCACCCAUGUAGAAGGCUUAAAAG [Mat - Exclusion 2 - JL mod - D95] | 59.4 nM | 21.4 nM
GACCAGUGAGGAUAUGUAAAAAAAAGAGAAGAGAAGAGAGAACAGAAGGCACAUGAGGAUCACCCAUGUAGGGA [Default title] | 143 nM | 170 nM
AACAAGUCAGGAUAUUCGAAAAGUAAAUAAGUAAAACAAAAGAAGAAGGGACAUGAGGAUCACCCAUGUAAAUA [JR_Exc004_Sub016] | 46.1 nM | 27.9 nM
AAAUUGUGAGGAUAUCUGGAUAGGAAAAAGAAAACCUAUCCAGAGAAGGCACAUGAGGAUCACCCAUGUAAAAA [JL cataway mod 5] | 61.7 nM | 96.8 nM
AAGAAUGCAGGAUAUACAUGAGGAUCACCCAUGUAAAAGAAAGAAAAGGGAAAGAAAAGUAGAAGGGCAAAGAA [Satre-merenamun Tausret] | 29.6 nM | 30.5 nM
GGGUCACAUGAGGAUCACCCAUGUAAGGAUAUGCUAGGGAUGGAAACCAUUACGCAACGCAGAAGGUACUAAAG [Janelle Amethyst 18 Mod 11 - Jieux - Exclusion 1] | 40.3 nM | 59 nM
AACAGUACAGGAUAUACAUGAGGAUCACCCAUGUGAGAAUUAAGUGGAAAACCACAAAGUAGAAGGGUACUGGA [Mat - Exclusion 3 - JL mod - D3] | 26.6 nM | 234 nM
AGUCAUACAGGAUAUACAUGAGGAUCACCCAUGUAUAUCCAAAAAAAAAAAAACUCAUGUAGAAGGGUAUGACA [EX3 206: Super Stable 6] | 12 nM | 12.4 nM
AGGAAACAUGAGGAUCACCCAUGUGAGGAUAUAUGAAAGAAAAGAAAAGAAAGAAGAAGUAGAAGGCACAAGAA [Djer] | 27.2 nM | 23.2 nM
AACAGUACAGGAUAUACAUGAGGAUCACCCAUGUAAAAAUAAUAAAAGGGCUCAAAAAGUAGAAGGGUACUGGA [Moding Maslow revisited (73) 15] | 31.2 nM | 66.3 nM
AGUUGGCGAGGAUAUACAUGAGGAUCACCCAUGUGAGAGAAAAAAAGGAGAAAAAAAAGUAGAAGGCGCUGACA [Ruth Fulton Benedict] | 42.3 nM | 123 nM

Sequence | apparent KD of MS2 coat protein (MS2 coat protein [1]) | apparent KD of MS2 coat protein (MS2 coat protein [2])
CUCUUGUGAGGAUAUCAAAGAAAAGAAAAGAAAGAAAAGAAUGAGAAGGCACAUGAGGAUCACCCAUGUAAGAA [EteRNA is fun!] | 36.4 nM | 59.5 nM
CAGUACUGAGGAUAUACAUGAGGAUCACCCAUGUAUCCAAGCUAGGAAACUAGCAAAAGUAGAAGGCAGUACUG [Ex3: 820] | 13.2 nM | 65.5 nM
GGUUGUGGAGGAUAUACAUGAGGAUCACCCAUGUGAGAGAAAAAAGUGAGAAAGAAAAGUAGAAGGUCGUGACG [salish99-ex3-69] | 36.8 nM | 34 nM
AGUUGGCGAGGAUAUACAUGAGGAUCACCCAUGUGAAAAAAAAAAGUGAGAAAGAAAAGUAGAAGGCGCUGACA [Mat - Exclusion 3 - Lego mod - D89] | 35.1 nM | 152 nM
AGAAAACAUGAGGAUCACCCAUGUGAGGAUAUGAAAAAGAAAAGAAAAGAAAGAAGAAUCAGAAGGCACAAGAA [Weneg] | 28.6 nM | 29.8 nM
GAAAAUUGAGGAUAUACGAACAUGUCAAAAGACGUGAAGGGACAUGAGGAUCACCCAUGUAGAAGGCGAAAGAG [Mat - Exclusion 2 - JL mod - D92] | 58.6 nM | 14.1 nM
AAAAGUCGAGGAUAUGCAAAAUGAUUGCGAAAGCAAUCAAAACAUGAGGAUCACCCAUGUAGAAGGCGACAAAA [Fiskers Exclusion 2 D3] | 19.6 nM | 11.1 nM
CUCAUGUGAGGAUAUCAGUAGUAAAAAAAUAAAAUUACUACUGAGAAGGCACAUGAGGAUCACCCAUGUGAAAA [EX4 339: Super Stable 39] | 27.4 nM | 16.1 nM
AGCUAGUCAGGAUAUACGAACAUGUCAAAAGACGUAAGGGAACAUGAGGAUCACCCAUGUAGAAGGGACUCGCA [Diamond 51] | 61.3 nM | 98.5 nM
AUAGUACAUGAGGAUCACCCAUGUCAGGAUAUCGGAUAUGACAUGAAAAAAAUGUUAAUGAGAAGGGACUAUAA [EX1 Malc#18 Mod 1 - Jieux - Exclusion 1] | 52.9 nM | 63.6 nM
AGAAAGUCAGGAUAUCAGAAACUAGUCGAAACGACUAGAAAUGAGAAGGGACAUGAGGAUCACCCAUGUAAGAA [Ex4 sub 2] | 46.3 nM | 43.1 nM
AGUCAUACAGGAUAUACAUGAGGAUCACCCAUGUUUAUCCUAAAAAAAUAAAAAACAUGUAGAAGGGUAUGACA [EX3 216: Super Stable 16] | 12.9 nM | 13.7 nM
UGCCGUCUAGGAUAUACAUGAGGAUCACCCAUGUGACACACAUAUUUUACAAAACCAUGUAGAAGGAGACGGCA [E3-2.0] | 99.2 nM | 477 nM
AAGAACGGAGGAUAUACAUGAGGAUCACCCAUGUAAAAGAAAGAGGGAAAAGAGAAAAGUAGAAGGCCGAAGAA [Haaibre Alexander IV] | 28 nM | 60.3 nM
AACAGUACAGGAUAUACAUGAGGAUCACCCAUGUGAAAAUUAAGUGGGAGACCACAAAGUAGAAGGGUACUGAA [Mat - Exclusion 3 - Eli mod - D60] | 126 nM | 62.3 nM
AAAAAACAUGAGGAUCACCCAUGUGAGGAUAUGUAAAAUAAAAUAAAAAUAAAAAAAAGCAGAAGGUAUAUGAA [Amethyst 66] | 31.4 nM | 40.6 nM
AUAGUACAUGAGGAUCACCCAUGUCAGGAUAUUCGAAAUGAAAAAAAAAAAAAAUGAAGGAGAAGGGACUAUAA [EX1 Malc#11] | 74.7 nM | 72 nM
GGUUGGCGAGGAUAUACAUGAGGAUCACCCAUGUGAGCGAAAAAAGUGAGAAAGAAAAGUAGAAGGCGCUGACG [salish99-ex3-50] | 45.7 nM | 60.5 nM
AGCUAGUCAGGAUAUACGAAAAUGUACGAAGCUGAGAAGGGACAUGAGGAUCACCCAUGUAGAAGGGACUAGCA [Diamond 35] | 39.2 nM | 52.5 nM
ACUAAUGAAGGAUAUACAAACAACAAACACACAACACACACACAUGAGGAUCACCCAUGUAGAAGGUCAAACAU [JR_Exc002_Sub1203] | 15.8 nM | 15.6 nM
AUGAGAGCAGGAUAUGCAGGUGAGCCGGAAGAAAGAAGAAGACAUGAGGAUCACCCAUGUAGAAGGGCUAGCCC [Madiesxe] | 41.9 nM | 38.7 nM
AGUUGGCGAGGAUAUACAUGAGGAUCACCCAUGUGAGAGAAAAAAGUGAGAAAGAAAAGUAGAAGGCGCUGACA [Norbert Elias] | 49.2 nM | 202 nM
